Biological target: Gluc2-VP3 BTV8 (pSPICA-N2-VP3 BTV8)
Assay: split reporter (BiFC, NanoBiT)

Row | Molecule | NLR (normalized luminescence ratio)
1 | Gluc1-MAVS (pSPICA-N1 human MAVS) (from UniProt Q7Z434 1-540) (natural protein) | 17.4
2 | Gluc1-IKKε (pSPICA-N1 human IKKε) (natural protein) MQSTANYLWHTDDLLGQGATASVYKARNKKSGELVAVKVFNTTSYLRPREVQVREFEVLRKLNHQNIVKLFAVEETGGSRQKVLVMEYCSSGSLLSVLESPENAFGLPEDEFLVVLRCVVAGMNHLRENGIVHRDIKPGNIMRLVGEEGQSIYKLTDFGAARELDDDEKFVSVYGTEEYLHPDMYERAVLRKPQQKAFGVTVDLWSIGVTLYHAATGSLPFIPFGGPRRNKEIMYRITTEKPAGAIAGAQRRENGPLEWSYTLPITCQLSLGLQSQLVPILANILEVEQAKCWGFDQFFAETSDILQRVVVHVFSLSQAVLHHIYIHAHNTIAIFQEAVHKQTSVAPRHQEYLFEGHLCVLEPSVSAQHIAHTTASSPLTLFSTAIPKGLAFRDPALDVPKFVPKVDLQADYNTAKGVLGAGYQALRLARALLDGQELMFRGLHWVMEVLQATCRRTLEVARTSLLYLSSSLGTERFSSVAGTPEIQELKAAAELRSRLRTLAEVLSRCSQNITETQESLSSLNRELVKSRDQVHEDRSIQQIQCCLDKMNFIYKQFKKSRMRPGLGYNEEQIHKLDKVNFSHLAKRLLQVFQEECVQKYQASLVTHGKRMRVVHETRNHLRLVGCSVAACNTEAQGVQESLSKLLEELSHQLLQDRAKGAQASPPPIAPYPSPTRKDLLLHMQELCEGMKLLASDLLDNNRIIERLNRVPAPPDV | 17.7

— article PMC7913109
